US20180355009A1

T1: human IL-22 receptor complex IL22R1 and IL10R2, overexpressed on HEK 293 cells (human) (UniProt Q8N6P7)
T1 sequence (looked up) 1: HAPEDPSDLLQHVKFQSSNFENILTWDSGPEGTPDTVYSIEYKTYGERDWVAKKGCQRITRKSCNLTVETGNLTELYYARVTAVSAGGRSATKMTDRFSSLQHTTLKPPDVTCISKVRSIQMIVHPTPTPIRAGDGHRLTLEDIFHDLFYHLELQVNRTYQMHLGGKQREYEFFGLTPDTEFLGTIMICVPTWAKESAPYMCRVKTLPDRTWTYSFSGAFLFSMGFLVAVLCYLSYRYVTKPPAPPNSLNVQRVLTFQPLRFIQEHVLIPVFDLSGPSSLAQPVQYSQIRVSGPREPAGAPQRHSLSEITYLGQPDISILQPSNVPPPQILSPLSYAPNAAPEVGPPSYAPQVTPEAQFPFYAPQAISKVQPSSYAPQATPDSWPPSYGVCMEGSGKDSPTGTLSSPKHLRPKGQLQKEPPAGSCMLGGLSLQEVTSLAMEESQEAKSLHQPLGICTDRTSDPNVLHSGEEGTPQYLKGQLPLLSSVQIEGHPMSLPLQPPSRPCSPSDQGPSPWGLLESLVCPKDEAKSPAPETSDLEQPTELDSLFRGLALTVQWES
T1 sequence (looked up) 2: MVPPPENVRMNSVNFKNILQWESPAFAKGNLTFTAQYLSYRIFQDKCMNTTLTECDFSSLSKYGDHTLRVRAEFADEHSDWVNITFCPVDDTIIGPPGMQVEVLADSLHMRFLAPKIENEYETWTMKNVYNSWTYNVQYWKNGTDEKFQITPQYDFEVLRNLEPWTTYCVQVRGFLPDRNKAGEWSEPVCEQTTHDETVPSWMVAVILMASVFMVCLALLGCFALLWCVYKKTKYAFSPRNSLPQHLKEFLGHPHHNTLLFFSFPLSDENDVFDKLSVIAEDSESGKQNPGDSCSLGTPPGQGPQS


target: T1, human IL-22 receptor complex IL22R1 and IL10R2, overexpressed on HEK 293 cells (human); test: cell-based or functional assay

| Binder | EC50 (pM), STAT3 luciferase reporter assay |
| --- | --- |
| IL-22 Fc construct 12 (huIgG1, linker …, produced in CHO) (Fc fusion, not shown: a dimerising Fc or GST) APISSHCRLDKSNFQQPYITNRTFMLAKEASLADNNTDVRLIGEKLFHGVSMSERCYLMKQVLNFTLEEVLFPQSDRFQPYMQEVVPFLARLSNRLSTCHIEGDDLHIQRNVQKLKDTVKKLGESGEIKAIGELDLLFMSLRNACIDKKVEPKSSDKTHT | 25 pM |
| IL-22 Fc construct 13 (huIgG1, linker …, produced in CHO) (Fc fusion, not shown: a dimerising Fc or GST) APISSHCRLDKSNFQQPYITNRTFMLAKEASLADNNTDVRLIGEKLFHGVSMSERCYLMKQVLNFTLEEVLFPQSDRFQPYMQEVVPFLARLSNRLSTCHIEGDDLHIQRNVQKLKDTVKKLGESGEIKAIGELDLLFMSLRNACIKVDKKVEPKSSDKTHT | 25 pM |
| IL-22 Fc construct 18 (huIgG1, linker …, N297G, produced in CHO) (Fc fusion, not shown: a dimerising Fc or GST) APISSHCRLDKSNFQQPYITNRTFMLAKEASLADNNTDVRLIGEKLFHGVSMSERCYLMKQVLNFTLEEVLFPQSDRFQPYMQEVVPFLARLSNRLSTCHIEGDDLHIQRNVQKLKDTVKKLGESGEIKAIGELDLLFMSLRNACIKKVEPKSSDKTHT | 20 pM |
| IL-22 Fc construct 24 (huIgG1, linker …, produced in E. coli) (Fc fusion, not shown: a dimerising Fc or GST) APISSHCRLDKSNFQQPYITNRTFMLAKEASLADNNTDVRLIGEKLFHGVSMSERCYLMKQVLNFTLEEVLFPQSDRFQPYMQEVVPFLARLSNRLSTCHIEGDDLHIQRNVQKLKDTVKKLGESGEIKAIGELDLLFMSLRNACIEPKSSDKTHT | 16 pM |
